{"source": "patent US20220127366A1", "about": "(DREN BIO, published 2022)", "key": {"[1]": {"target": "human Dectin-1 isoform B (human) (UniProt Q9BXN2)", "assay": "flow cytometry, HEK-Blue hDectin-1b cells"}, "[2]": {"target": "cynomolgus monkey Dectin-1 (cynomolgus monkey)", "assay": "flow cytometry, cynomolgus monkey monocytes"}, "[3]": {"target": "human Dectin-1 isoform A (human) (UniProt Q9BXN2)", "assay": "flow cytometry, HEK-Blue hDectin-1a cells"}, "[4]": {"target": "T1, human Dectin-1 (isoform not given) (human, UniProt Q9BXN2 1-247)", "T1 chain": "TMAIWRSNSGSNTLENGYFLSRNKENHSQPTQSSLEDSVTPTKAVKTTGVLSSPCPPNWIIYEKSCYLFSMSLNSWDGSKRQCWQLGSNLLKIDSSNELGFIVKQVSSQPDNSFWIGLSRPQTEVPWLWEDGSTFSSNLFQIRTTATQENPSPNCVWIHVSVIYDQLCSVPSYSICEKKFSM", "assay": "flow cytometry, human monocytes"}, "[5]": {"target": "human Dectin-1 isoform A (human) (UniProt Q9BXN2)", "assay": "flow cytometry, HEK293F hDectin-1a FL cells"}, "[6]": {"target": "cynomolgus monkey Dectin-1 (cynomolgus monkey)", "assay": "flow cytometry, cynomolgus monkey monocytes", "remark": "listed apart in the source"}, "human CD20": {"target": "T2, human CD20 (human, UniProt P11836 1-297)", "T2 construct": "whole, on cells; also called hCD20", "T2 sequence (looked up)": "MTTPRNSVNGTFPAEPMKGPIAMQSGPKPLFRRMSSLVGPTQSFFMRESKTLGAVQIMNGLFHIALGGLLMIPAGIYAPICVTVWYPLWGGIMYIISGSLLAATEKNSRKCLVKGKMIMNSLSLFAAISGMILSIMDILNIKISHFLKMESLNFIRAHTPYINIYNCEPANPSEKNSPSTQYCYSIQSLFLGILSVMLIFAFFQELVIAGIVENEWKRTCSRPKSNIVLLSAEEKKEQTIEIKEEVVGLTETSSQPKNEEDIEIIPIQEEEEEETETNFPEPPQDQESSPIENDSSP", "assay": "flow cytometry, Raji cells"}, "[7]": {"target": "T1, human Dectin-1 (isoform not given)", "assay": "flow cytometry, HEK 293 cells stably overexpressing human Dectin-1"}, "[8]": {"target": "T1, human Dectin-1 (isoform not given)", "assay": "cell-based or functional assay"}}, "note": "Read-outs that look alike come from different tables or passages of the source."}
{"molecule": "anti-Dectin-1 antibody 259931 (commercial)", "values": [{"measurement": "EC50", "setting": "[1]", "result": 0.9, "unit": "nM"}, {"measurement": "EC50", "setting": "[2]", "result": 16, "unit": "nM"}, {"measurement": "EC50", "setting": "[3]", "result": 0.8, "unit": "nM"}, {"measurement": "EC50", "setting": "[4]", "result": 0.3, "unit": "nM"}, {"measurement": "EC50", "setting": "[5]", "result": 1.2, "unit": "nM"}, {"measurement": "EC50", "setting": "[6]", "result": 16.5, "unit": "nM"}]}
{"molecule": "anti-Dectin-1 antibody GE2 (commercial)", "values": [{"measurement": "EC50", "setting": "[1]", "result": 12, "unit": "nM"}, {"measurement": "EC50", "setting": "[3]", "result": 1.9, "unit": "nM"}, {"measurement": "EC50", "setting": "[4]", "result": 1.4, "unit": "nM"}, {"measurement": "EC50", "setting": "[5]", "result": 2.4, "unit": "nM"}]}
{"molecule": "2M24/RSV hIgG1 (fucosylated or afucosylated) (bispecific antibody, V domains shown) VH 1: QVQLVQSGAEVKKPGASVKVSCKSSGYTFTDYYIHWVRQAPGQGLEWMGWINPNSGDTNYAQKFQGRITMTRDTSISTAYLELSRLRSDDTAVFYCARNSGSYSFGYWGQGTLVTVSS VL 1: DIQMTQSPSSVSASVGDRVTITCRASQGISSWLAWYQQKPGKAPKLLIFGASSLQSGVPSRFSGSGSGTDFTLTVSSLQPEDFATYYCQQAYSFPFTFGPGTKVDIE VH 2: QVTLRESGPALVKPTQTLTLTCTFSGFSLSTSGMSVGWIRQPPGKALEWLADIWWDDKKDYNPSLKSRLTISKDTSANQVVLKVTNMDPADTATYYCARSMITNWYFDVWGAGTTVTVSS VL 2: DIQMTQSPSTLSASVGDRVTITCKCQLSVGYMHWYQQKPGKAPKLLIYDTSKLASGVPSRFSGSGSGTAFTLTISSLQPDDFATYYCFQGSGYPFTFGGGTKLEIK", "values": [{"measurement": "binding result", "setting": "human CD20", "result": "no binding (tested: between 10 and 100 nM (about 60 nM))"}]}
{"molecule": "2M24/RSV hIgG1 inert (bispecific antibody, V domains shown, also called 2M24/RSV with inert human IgG1 Fc) VH 1: QVQLVQSGAEVKKPGASVKVSCKSSGYTFTDYYIHWVRQAPGQGLEWMGWINPNSGDTNYAQKFQGRITMTRDTSISTAYLELSRLRSDDTAVFYCARNSGSYSFGYWGQGTLVTVSS VL 1: DIQMTQSPSSVSASVGDRVTITCRASQGISSWLAWYQQKPGKAPKLLIFGASSLQSGVPSRFSGSGSGTDFTLTVSSLQPEDFATYYCQQAYSFPFTFGPGTKVDIE VH 2: QVTLRESGPALVKPTQTLTLTCTFSGFSLSTSGMSVGWIRQPPGKALEWLADIWWDDKKDYNPSLKSRLTISKDTSANQVVLKVTNMDPADTATYYCARSMITNWYFDVWGAGTTVTVSS VL 2: DIQMTQSPSTLSASVGDRVTITCKCQLSVGYMHWYQQKPGKAPKLLIYDTSKLASGVPSRFSGSGSGTAFTLTISSLQPDDFATYYCFQGSGYPFTFGGGTKLEIK", "values": [{"measurement": "binding result", "setting": "human CD20", "result": "no binding (tested: between 10 and 100 nM (about 60 nM))"}]}
{"molecule": "Fab 2M24-mSA fusion protein (Fab, V domains shown, only the 2M24 VL is tied; also called Fab 2M24 fusion to monomeric streptavidin) VH: QVQLVQSGAEVKKPGASVKVSCKSSGYTFTDYYIHWVRQAPGQGLEWMGWINPNSGDTNYAQKFQGRITMTRDTSISTAYLELSRLRSDDTAVFYCARNSGSYSFGYWGQGTLVTVSS VL: DIQMTQSPSSVSASVGDRVTITCRASQGISSWLAWYQQKPGKAPKLLIFGASSLQSGVPSRFSGSGSGTDFTLTVSSLQPEDFATYYCQQAYSFPFTFGPGTKVDIE", "values": [{"measurement": "EC50", "setting": "[7]", "result": 1.45, "unit": "nM"}]}
{"molecule": "anti-Dectin-1 antibody 15E2 (commercial) (antibody, V domains shown) VH: QWQLQQSGAELARPGASWKMSCKASGYTFTTYTMHWWKQRPGQGLEWIGYINPSSGYTNYNQKFKDKATLTADKSSSTASMQLSSLTSEDSAWYYCARERAVLVPYAMDYWGQGTSVTVSS VL: QIVLTQSPAVMSASPGEKWTITCTASSSLSYMHWFQQKPGTSPKLWLYSTSILASGVPTRFSGSGSGTSYSLTISRMEAEDAATYYCQQRSSSPFTFGSGTKLEIK", "values": [{"measurement": "IFNg secretion in PBMC (fold change to isotype), immobilized antibody", "setting": "[8]", "result": "1.6 fold change to isotype"}, {"measurement": "IL6 secretion in PBMC (fold change to isotype), immobilized antibody", "setting": "[8]", "result": "2.6 fold change to isotype"}, {"measurement": "TNFa secretion in PBMC (fold change to isotype), immobilized antibody", "setting": "[8]", "result": "3 fold change to isotype"}]}
